Measurements: patent US20230055408A1 (JIANGSU HENGRUI MEDICINE, published 2023)

T1: monkey CEA expressed on CHO cell surface (cynomolgus monkey)
T1 construct: also called cynoCEA-CHO; monkey CEA proteins on the cell surface
T1 chain: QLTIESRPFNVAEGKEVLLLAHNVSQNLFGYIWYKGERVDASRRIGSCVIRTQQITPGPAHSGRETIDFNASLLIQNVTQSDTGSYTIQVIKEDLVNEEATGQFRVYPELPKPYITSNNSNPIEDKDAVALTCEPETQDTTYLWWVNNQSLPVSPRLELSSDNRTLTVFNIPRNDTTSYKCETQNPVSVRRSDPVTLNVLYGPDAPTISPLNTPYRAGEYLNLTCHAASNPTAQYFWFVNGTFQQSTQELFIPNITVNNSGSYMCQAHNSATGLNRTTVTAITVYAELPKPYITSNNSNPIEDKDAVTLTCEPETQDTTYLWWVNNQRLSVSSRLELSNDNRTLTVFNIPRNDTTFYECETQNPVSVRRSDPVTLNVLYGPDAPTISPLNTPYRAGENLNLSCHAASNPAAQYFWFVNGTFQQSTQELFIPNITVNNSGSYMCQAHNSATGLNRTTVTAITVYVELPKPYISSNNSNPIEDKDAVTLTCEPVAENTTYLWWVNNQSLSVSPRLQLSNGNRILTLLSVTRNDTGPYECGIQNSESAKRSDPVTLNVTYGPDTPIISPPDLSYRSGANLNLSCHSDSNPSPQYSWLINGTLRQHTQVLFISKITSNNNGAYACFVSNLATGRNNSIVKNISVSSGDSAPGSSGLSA

T2: human CEA protein on the cell surface (human, UniProt P06731 35-685)
T2 construct: whole, on cells; also called CEACAM-5; CD66e
T2 sequence (looked up): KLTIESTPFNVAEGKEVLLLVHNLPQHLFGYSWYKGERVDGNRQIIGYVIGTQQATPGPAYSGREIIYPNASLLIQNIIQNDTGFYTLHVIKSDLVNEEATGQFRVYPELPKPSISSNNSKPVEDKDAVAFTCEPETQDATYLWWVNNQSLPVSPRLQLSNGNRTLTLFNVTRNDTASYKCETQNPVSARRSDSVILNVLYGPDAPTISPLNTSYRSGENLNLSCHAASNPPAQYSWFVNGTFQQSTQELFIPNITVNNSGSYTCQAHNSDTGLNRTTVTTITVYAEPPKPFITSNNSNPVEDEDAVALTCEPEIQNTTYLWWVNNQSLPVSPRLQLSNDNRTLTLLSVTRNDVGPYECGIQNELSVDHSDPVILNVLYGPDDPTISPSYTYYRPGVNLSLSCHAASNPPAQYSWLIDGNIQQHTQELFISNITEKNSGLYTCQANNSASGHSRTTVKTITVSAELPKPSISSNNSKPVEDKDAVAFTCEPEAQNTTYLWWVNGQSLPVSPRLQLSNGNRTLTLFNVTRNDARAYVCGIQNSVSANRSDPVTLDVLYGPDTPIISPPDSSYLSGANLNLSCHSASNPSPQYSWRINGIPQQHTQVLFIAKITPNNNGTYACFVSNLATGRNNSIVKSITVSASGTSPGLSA


Experiments:
[1] = biological target: T1, monkey CEA expressed on CHO cell surface; test: FACS, cynoCEA-CHO cells
Method: (§1) In order to detect the binding of the antibody to the CEA protein on the cell surface, the binding activity of the antibody was determined by FACS using cells expressing CEA on the cell surface. Cells were harvested and centrifuged at 400 g at 4° C. for 5 min. Pre-cooled PBS containing FBS at final concentration 10% was added, and the mixture was centrifuged at 400 g at 4° C. for 5 min; the procedures were repeated twice. The cells were seeded into a 96-well plate at 10⁵ cells/well, and 100 μL of gradient diluted antibody solution was added to each well. The plate was incubated at 4° C. for 60 min and centrifuged, and the supernatant was removed. 250 μL of pre-cooled PBS containing FBS at final concentration 10% was added to each well to resuspend the cells, and the suspension was centrifuged at 400 g at 4° C. for 5 min, followed by the removal of the supernatant; the procedures were repeated twice. 50 μL of 1:200 diluted secondary antibody Alexa Fluor@488 goat anti-human IgG (H+L) (Lifetechologies, Cat #A11013) was added. […] 250 μL of pre-cooled PBS containing FBS at final concentration 10% was added to each cell to resuspend the cells, and the suspension was centrifuged at 400 g at 4° C. for 5 min; the procedures were repeated twice. 100 μL of pre-cooled PBS was added to each well to resuspend the cells. The plate was analyzed by a flow cytometer (BD, FACSverse) for fluorescence signal values.

[2] = biological target: T2, human CEA protein on the cell surface; test: FACS, MKN45 cells
Method: as §1

| Binder | EC50 [1] [nM] | EC50 [2] [nM] |
| --- | --- | --- |
| Hu63-5 (antibody, human IgG1, kappa, V domains shown) VH: EVQLVQSGAEVKKPGASVKVSCKASGYTFTDFYMNWVRQAPGQGLEWMGDIFPKNGNTDYNRKFKDRVTLTVDKSTSTVYMELSSLRSEDTAVYYCARSGYGNYVFDYWGQGTLVTVSS VL: DVQMTQSPSSLSASVGDRVTITCRTSQDINIYLNWYQQKPGKAPKLLIYYRSGLLSGVPSRFSGSGSGTDYTLTISSLQPEDFATYYCQQGNTLPPTFGGGTKVEIKR | 2.14 | 3.7 |
| Hu63-1 (antibody, human IgG1, kappa, V domains shown) VH: EVQLVQSGAEVKKPGASVKVSCKASGYTFTDFYMNWVRQAPGQGLEWMGDIFPKNGNTDYNRKFKDRVTMTRDTSTSTVYMELSSLRSEDTAVYYCARSGYGNYVFDYWGQGTLVTVSS VL: DIQMTQSPSSLSASVGDRVTITCRTSQDINIYLNWYQQKPGKAPKLLIYYRSGLLSGVPSRFSGSGSGTDFTLTISSLQPEDFATYYCQQGNTLPPTFGGGTKVEIKR | – | 4.23 |
| Hu63-2 (antibody, human IgG1, kappa, V domains shown) VH: EVQLVQSGAEVKKPGASVKVSCKASGYTFTDFYMNWVRQAPGQGLEWMGDIFPKNGNTDYNRKFKDRVTMTRDTSTSTVYMELSSLRSEDTAVYYCARSGYGNYVFDYWGQGTLVTVSS VL: DVQMTQSPSSLSASVGDRVTITCRTSQDINIYLNWYQQKPGKAPKLLIYYRSGLLSGVPSRFSGSGSGTDYTLTISSLQPEDFATYYCQQGNTLPPTFGGGTKVEIKR | – | 3.73 |
| Hu63-3 (antibody, human IgG1, kappa, V domains shown) VH: EVQLVQSGAEVKKPGASVKVSCKASGYTFTDFYMNWVRQAPGQGLEWMGDIFPKNGNTDYNRKFKDRVTMTRDTSTSTVYMELSSLRSEDTAVYYCARSGYGNYVFDYWGQGTLVTVSS VL: DVQMTQSPSSLSASVGDRVTITCRTSQDINIYLNWYQQKPGGAVKLLIYYRSGLLSGVPSRFSGSGSGTDYTLTISSLQPEDFATYYCQQGNTLPPTFGGGTKVEIKR | 2.01 | 3.56 |
| Hu63-4 (antibody, human IgG1, kappa, V domains shown) VH: EVQLVQSGAEVKKPGASVKVSCKASGYTFTDFYMNWVRQAPGQGLEWMGDIFPKNGNTDYNRKFKDRVTLTVDKSTSTVYMELSSLRSEDTAVYYCARSGYGNYVFDYWGQGTLVTVSS VL: DIQMTQSPSSLSASVGDRVTITCRTSQDINIYLNWYQQKPGKAPKLLIYYRSGLLSGVPSRFSGSGSGTDFTLTISSLQPEDFATYYCQQGNTLPPTFGGGTKVEIKR | 1.95 | 5.18 |
| Hu63-6 (antibody, human IgG1, kappa, V domains shown) VH: EVQLVQSGAEVKKPGASVKVSCKASGYTFTDFYMNWVRQAPGQGLEWMGDIFPKNGNTDYNRKFKDRVTLTVDKSTSTVYMELSSLRSEDTAVYYCARSGYGNYVFDYWGQGTLVTVSS VL: DVQMTQSPSSLSASVGDRVTITCRTSQDINIYLNWYQQKPGGAVKLLIYYRSGLLSGVPSRFSGSGSGTDYTLTISSLQPEDFATYYCQQGNTLPPTFGGGTKVEIKR | 2.88 | 3.71 |
| Hu63-8 (antibody, human IgG1, kappa, V domains shown) VH: EVQLVQSGAEVKKPGASVKVSCKASGYTFTDFYMNWVRQAPGQGLEWIGDIFPKNGNTDYNRKFKDRATLTVDKSTSTVYMEFSSLRSEDTAVYYCARSGYGNYVFDYWGQGTLVTVSS VL: DVQMTQSPSSLSASVGDRVTITCRTSQDINIYLNWYQQKPGKAPKLLIYYRSGLLSGVPSRFSGSGSGTDYTLTISSLQPEDFATYYCQQGNTLPPTFGGGTKVEIKR | 2.43 | 3.24 |
| Hu63-9 (antibody, human IgG1, kappa, V domains shown) VH: EVQLVQSGAEVKKPGASVKVSCKASGYTFTDFYMNWVRQAPGQGLEWIGDIFPKNGNTDYNRKFKDRATLTVDKSTSTVYMEFSSLRSEDTAVYYCARSGYGNYVFDYWGQGTLVTVSS VL: DVQMTQSPSSLSASVGDRVTITCRTSQDINIYLNWYQQKPGGAVKLLIYYRSGLLSGVPSRFSGSGSGTDYTLTISSLQPEDFATYYCQQGNTLPPTFGGGTKVEIKR | 2.47 | 4.87 |
| Hu63-10 (antibody, human IgG1, kappa, V domains shown) VH: EVQLVQSGAEVKKPGASVKVSCKASGYTFTDFYMNWVRQAPGQGLEWIGDIFPKNGNTDYNRKFKDKATLTVDKSTSTVYMEFRSLRSEDTAVYYCARSGYGNYVFDYWGQGTLVTVSS VL: DIQMTQSPSSLSASVGDRVTITCRTSQDINIYLNWYQQKPGKAPKLLIYYRSGLLSGVPSRFSGSGSGTDFTLTISSLQPEDFATYYCQQGNTLPPTFGGGTKVEIKR | 1.88 | 4.95 |
| Hu63-11 (antibody, human IgG1, kappa, V domains shown) VH: EVQLVQSGAEVKKPGASVKVSCKASGYTFTDFYMNWVRQAPGQGLEWIGDIFPKNGNTDYNRKFKDKATLTVDKSTSTVYMEFRSLRSEDTAVYYCARSGYGNYVFDYWGQGTLVTVSS VL: DVQMTQSPSSLSASVGDRVTITCRTSQDINIYLNWYQQKPGKAPKLLIYYRSGLLSGVPSRFSGSGSGTDYTLTISSLQPEDFATYYCQQGNTLPPTFGGGTKVEIKR | 2.29 | 4.35 |
| Hu63-12 (antibody, human IgG1, kappa, V domains shown) VH: EVQLVQSGAEVKKPGASVKVSCKASGYTFTDFYMNWVRQAPGQGLEWIGDIFPKNGNTDYNRKFKDKATLTVDKSTSTVYMEFRSLRSEDTAVYYCARSGYGNYVFDYWGQGTLVTVSS VL: DVQMTQSPSSLSASVGDRVTITCRTSQDINIYLNWYQQKPGGAVKLLIYYRSGLLSGVPSRFSGSGSGTDYTLTISSLQPEDFATYYCQQGNTLPPTFGGGTKVEIKR | 2.23 | 4.04 |
| Hu103-11 (antibody, human IgG1, lambda) heavy: not shown light: ELVLTQSPSASASLGASVKLTCTLSSQHSTYTIEWYQQQPEKGPRYVMELKKDGSHSTGDGIPDRFSGSSSGAERYLTISSLQSEDEADYYCGVGNTIKEQFVYVFGGGTKLTVLGQPKANPTVTLFPPSSEELQANKATLVCLISDFYPGAVTVAWKADGSPVKAGVETTKPSKQSNNKYAASSYLSLTPEQWKSHRSYSCQVTHEGSTVEKTVAPTECS | 0.92 | 2.71 |
| Hu103-1 (antibody, human IgG1, lambda, V domains shown) VH: EVQLVQSGSELKKPGASVKVSCKASGYTFTTYGVIWVRQAPGQGLEWMGWINTYSGVPTYADDFKGRFVFSLDTSVSTAYLQISSLKAEDTAVYYCARKKTLTTVTPWFAYWGQGTLVTVSS VL: ELVLTQSPSASASLGASVKLTCTLSSQHSTYTIEWHQQQPEKGPRYLMELKKDGSHSTGDGIPDRFSGSSSGAERYLTISSLQSEDEADYYCGVGNTIKEQFVYVFGGGTKLTVLG | 2.49 | 2.37 |
| Hu103-2 (antibody, human IgG1, lambda, V domains shown) VH: EVQLVQSGSELKKPGASVKVSCKASGYTFTTYGVIWVRQAPGQGLEWMGWINTYSGVPTYADDFKGRFVFSLDTSVSTAYLQISSLKAEDTAVYYCARKKTLTTVTPWFAYWGQGTLVTVSS VL: ELVLTQSPSASASLGASVKLTCTLSSQHSTYTIEWYQQQPEKGPRYLMELKKDGSHSTGDGIPDRFSGSSSGAERYLTISSLQSEDEADYYCGVGNTIKEQFVYVFGGGTKLTVLG | 1.26 | 2.18 |
| Hu103-3 (antibody, human IgG1, lambda) heavy: not shown light: ELVLTQSPSASASLGASVKLTCTLSSQHSTYTIEWYQQQPEKGPRYVMELKKDGSHSTGDGIPDRFSGSSSGAERYLTISSLQSEDEADYYCGVGNTIKEQFVYVFGGGTKLTVLGQPKANPTVTLFPPSSEELQANKATLVCLISDFYPGAVTVAWKADGSPVKAGVETTKPSKQSNNKYAASSYLSLTPEQWKSHRSYSCQVTHEGSTVEKTVAPTECS | 1.18 | 1.91 |
